This note sets out measurements from US20210324359A1, “USE OF GRAM-NEGATIVE LYSIN-ANTIMICROBIAL PEPTIDE (AMP) POLYPEPTIDE CONSTRUCTS IN TREATING ENDOCARDITIS” (priority 2020, published 2021).

One assay has as its system P. aeruginosa. Briefly: MIC, modified CLSI broth microdilution in CAA medium without or with […] human serum (Table 4). On CAA/HuS MIC: CAA supplemented with 2.5% human serum. It is filed as cell-based, Pseudomonas aeruginosa. Particulars: for CAA MIC: CAA medium, no human serum; for CAA/HuS MIC: CAA supplemented with […] human serum; for effect of the structural modification on activity (as assessed by MIC) versus the parent lysin: CAA with and without human serum, parent GN316 or GN37. The text has this: 2015. […] Clinical and Laboratory Standards Institute, Wayne, Pa.

Assay [1] concerns carbepenam-resistant clinical isolate WC-453. Briefly: MIC in CAA without or with 25% human serum (Table 5). Format: cell-based, Pseudomonas aeruginosa. On the set-up: CAA MIC: unit not given here. The note with it: for CAA/HuS MIC: CAA supplemented with 25% human serum. As to the method: MIC values were determined using a modification of the standard broth microdilution reference method defined by the Clinical and Laboratory Standards Institute (CLSI), CLSI. […] Methods for Dilution Antimicrobial Susceptibility Tests for Bacteria That Grow Aerobically; Approved Standard-10th Edition. Clinical and Laboratory Standards Institute, Wayne, Pa.

Assay [2] concerns P. aeruginosa strain WC-453. The experiment in a line: Time-kill assay in HEPES or CAA with 25% human serum (Tables 7, 8). The note with it: for bactericidal activity (CFU decrease of 3-Log10, 3 hours after the addition of lysin): 10 μg/mL, enumerated lysins in CAA/HuS, general statement for HEPES and CAA/HuS; for HEPES (Log10 CFU/mL), 1 hr / HEPES (Log10 CFU/mL), 3 hr: 25 mM HEPES pH 7.4; for HEPES (Log10 CFU/mL), 1 hr / HEPES (Log10 CFU/mL), 3 hr / CAA/HuS (Log10 CFU/mL), 1 hr / CAA/HuS (Log10 CFU/mL), 3 hr: lysin 10 μg/ml, WC-453; for CAA/HuS (Log10 CFU/mL), 1 hr / CAA/HuS (Log10 CFU/mL), 3 hr: CAA + 25% human serum. It is filed as cell-based, Pseudomonas aeruginosa. The procedure: Exponential phase bacteria were then pelleted and resuspended in 1/5 culture volume of 25 mM HEPES, pH 7.4 before a final adjustment to an optical density corresponding to a McFarland value of 0.5. […] All treatments were incubated at 37° C. with aeration. At time points before the addition of lysin (or buffer control) and at 1 hour and 3 hours intervals thereafter, culture samples were removed for quantitative plating on CAA agar plates.

In assay [3] the test system is biofilms formed by P. aeruginosa strain ATCC 17646. Particulars: strain ATCC 17646 biofilm. The procedure: Biofilms are then washed and treated with e.g., a 2-fold dilution series of the lysin in TSBg at e.g., 37° C. for 24 hours. After treatment, wells are washed, air-dried at e.g., 37° C. and stained with e.g., 0.05% crystal violet for 10 minutes.

B1: GN178: lysin-AMP construct: Esculentin fragment and IGEM linker N-terminal to GN146 lysin (SEQ ID NO: 6) (protein)
chain: MPPIFSKLAGKKIKNLLISGLKGGSGSGSGSGSPRTSQRGIDLIKSFEGLRLSAYQDSVGVWTIGYGTTRGVTRYMTITVEQAERMLSNDIQRFEPELDRLAKVPLNQNQWDALMSFVYNLGAANLASSTLLDLLNKGDYQGAADQFPHWVNAGGKRLDGLVKRRAAERALFLEPLS
For the molecule B1, in the assay on P. aeruginosa, the “CAA MIC” value was found to be 8000 µg/mL and the “CAA/HuS MIC” value is 4000 µg/mL. In assay [1], the “activity in CAA supplemented with human serum (25%)” value (“activity … (25%)” for short) was “active”, the “CAA MIC” value is given as 8 and the “CAA/HuS MIC” value is reported as 1.

B2: GN83: AMP OBPgpLYS fused to the N-terminus of lysin GN4 (SEQ ID NO: 216) (protein)
chain: MKNSEKNASIIMSIQRTLASLSLYGGRIDGLFGEKCRGAIILMLNKVYPNFSTNKLPSNTYEAESVFTFLQTALAGVGLYTITIDGKWGGTSQGAIDALVKSYRQITEAERAGSTLPLGLATVMSTSQRGIDLIKSFEGLRLSAYQDSVGVWTIGYGTTRGVTRYMTITVEQAERMLSNDIQRFEPELDRLAKVPLNQNQWDALMSFVYNLGAANLASSTLLKLLNKGDYQGAADQFPRWVNAGGKRLDGLVKRRAAERALFLEPLS
modifications: OBG_GN4_2 (Lyz+C-term)
B2: in assay [2], the “bactericidal activity (CFU decrease of 3-Log10, 3 hours after the addition of lysin)” value is on record as “bactericidal activity”; the “HEPES (Log10 CFU/mL), 1 hr” value is reported as less than 3.7 Log10 CFU/mL; the “HEPES (Log10 CFU/mL), 3 hr” value is less than 3.7 Log10 CFU/mL; the “CAA/HuS (Log10 CFU/mL), 1 hr” value is listed as 5.7 Log10 CFU/mL. In addition, the “CAA/HuS (Log10 CFU/mL), 3 hr” value in assay [2] is less than 3.7 Log10 CFU/mL. Besides, the MBEC in assay [3] worked out at 1 µg/mL. Moreover, in assay [1], the “activity … (25%)” value is given as “repressed”, the “CAA MIC” value is recorded as more than 128 and the “CAA/HuS MIC” value is on record as more than 128.

B3: GN76: lysin obtained from Acinetobacter phage vB_AbaP_CEB1 (SEQ ID NO: 203) (protein)
chain: MILTKDGFGIIRNELFGGKLDQTQVDAINFIVEKATESGLSYPEAAYLLATIYHETGLPSGYRTMQPIKEAGSDNYLRSKKYYPYIGYGYVQLTWKENYGRIGKLIGIDLIKNPEKALEPLIAIQIAIKGMLNGWFTGVGFRRKRPVSKYNKQQYIAARNIINGKDKAELIAKYAIIFERALRSL
modifications: Acinetobacter phage vB_AbaP_CEB1
Take B3: in assay [2], the “bactericidal activity (CFU decrease of 3-Log10, 3 hours after the addition of lysin)” value is “bactericidal activity”; the “HEPES (Log10 CFU/mL), 1 hr” value is recorded as less than 3.7 Log10 CFU/mL; the “HEPES (Log10 CFU/mL), 3 hr” value was less than 3.7 Log10 CFU/mL; the “CAA/HuS (Log10 CFU/mL), 1 hr” value came out at 5.7 Log10 CFU/mL. In assay [2], the “CAA/HuS (Log10 CFU/mL), 3 hr” value is listed as less than 3.7 Log10 CFU/mL. In assay [3], this molecule yielded an MBEC of 0.125 µg/mL. In assay [1], the “activity … (25%)” value is listed as “active”, the “CAA MIC” value is 64 and the “CAA/HuS MIC” value turned out to be 8.

B4: GN122: lysin obtained from Pseudomonas putida strain PA14H7 (SEQ ID NO: 218) (protein, listed as Pseudomonas putida)
chain: MSIFSFVKEAGEKLIDLLTPGNANASEQLKEHVSKVGLGNPNIQTTVEGSKVTVTGEVASQEEKEKILLALGNIAGVESVDDQITVTGPLVAAARFVVVKKGDTLSAISLAVYGNANQYNKIFEANKPLLSHPDKIYPGQTLRIPE
For B4, in assay [2], the “HEPES (Log10 CFU/mL), 1 hr” value came to 7.7 Log10 CFU/mL; the “HEPES (Log10 CFU/mL), 3 hr” value turned out to be 5.4 Log10 CFU/mL; the “CAA/HuS (Log10 CFU/mL), 1 hr” value turned out to be 6.7 Log10 CFU/mL; the “CAA/HuS (Log10 CFU/mL), 3 hr” value is given as 6.7 Log10 CFU/mL. Further, in assay [3], the MBEC came to 1 µg/mL. Further, in assay [1], the “activity … (25%)” value is “active”, the “CAA MIC” value was found to be 2 and the “CAA/HuS MIC” value came to 2.

B5: GN14: lysin obtained from Pseudomonas phage Lull (SEQ ID NO: 124) (protein)
chain: NNELPWVAEARKYIGLREDTSKTSHNPKLLAMLDRMGEFSNESRAWWHDDETPWCGLFVGYCLGVAGRYVVREWYRARAWEAPQLTKLDRPAYGALVTFTRSGGGHVGFIVGKDARGNLMVLGGNQSNAVSIAPFAVSRVTGYFWPSFWRNKTAVKSVPFEERYSLPLLKSNGELSTNEA
Consider B5, for which, in assay [2], the “bactericidal activity (CFU decrease of 3-Log10, 3 hours after the addition of lysin)” value is recorded as “bactericidal activity”; the “HEPES (Log10 CFU/mL), 1 hr” value is reported as less than 3.7 Log10 CFU/mL; the “HEPES (Log10 CFU/mL), 3 hr” value is listed as less than 3.7 Log10 CFU/mL; the “CAA/HuS (Log10 CFU/mL), 1 hr” value came out at 5.7 Log10 CFU/mL. The “CAA/HuS (Log10 CFU/mL), 3 hr” value in assay [2] is recorded as less than 3.7 Log10 CFU/mL. For the same molecule, in assay [1], the “activity … (25%)” value is recorded as “active”, the “CAA MIC” value is more than 128 and the “CAA/HuS MIC” value worked out at 32.

B6: GN218: lysin-AMP construct: IGEM linker and RI12 antimicrobial peptide C-terminal to GN37 lysin (SEQ ID NO: 10) (protein)
chain: MTYTLSKRSLDNLKGVHPDLVAVVHRAIQLTPVDFAVIEGLRSVSRQKELVAAGASKTMNSRHLTGHAVDLAAYVNGIRWDWPLYDAIAVAVKAAAKELGVAIVWGGDWTTFKDGPHFELDRSKYGGGSGGGGSGGGSRLKKIGKVLKWI
Take B6: in the assay on P. aeruginosa, the “CAA MIC” value was determined as 8000 µg/mL, the “CAA/HuS MIC” value was determined as 1000 µg/mL and the “effect of the structural modification on activity (as assessed by MIC) versus the parent lysin” value was “very strong activity in the presence of human serum”. In assay [1], the “activity … (25%)” value is on record as “active”, the “CAA MIC” value is reported as 8 and the “CAA/HuS MIC” value is on record as 1.

B7: GN93: lysin-AMP construct: cationic peptide (SEQ ID NO: 120) and linker N-terminal to GN14 lysin (SEQ ID NO: 62) (protein)
chain: MKFFKFFKFFKAGAGAGAGAGAGAGAGASNNELPWVAEARKYIGLREDTSKTSHNPKLLAMLDRMGEFSNESRAWWHDDETPWCGLFVGYCLGVAGRYVVREWYRARAWEAPQLTKLDRPAYGALVTFTRSGGGHVGFIVGKDARGNLMVLGGNQSNAVSIAPFAVSRVTGYFWPSFWRNKTAVKSVPFEERYSLPLLKSNGELSTNEA
With B7, in the assay on P. aeruginosa, the “CAA MIC” value is 128000 µg/mL and the “CAA/HuS MIC” value is 8000 µg/mL. Besides, in assay [2], the “bactericidal activity (CFU decrease of 3-Log10, 3 hours after the addition of lysin)” value was “bactericidal activity”; the “HEPES (Log10 CFU/mL), 1 hr” value turned out to be 6.0 Log10 CFU/mL; the “HEPES (Log10 CFU/mL), 3 hr” value is recorded as less than 3.7 Log10 CFU/mL; the “CAA/HuS (Log10 CFU/mL), 1 hr” value is given as 6.6 Log10 CFU/mL. Besides, the “CAA/HuS (Log10 CFU/mL), 3 hr” value in assay [2] is less than 3.7 Log10 CFU/mL. Moreover, the MBEC in assay [3] is 0.125 µg/mL. In assay [1], the “activity … (25%)” value was “active”, the “CAA MIC” value was found to be 128 and the “CAA/HuS MIC” value is 8.

B8: GN217: GN37 lysin with amino acid substitution R79H (SEQ ID NO: 8) (protein)
chain: MTYTLSKRSLDNLKGVHPDLVAVVHRAIQLTPVDFAVIEGLRSVSRQKELVAAGASKTMNSRHLTGHAVDLAAYVNGIHWDWPLYDAIAVAVKAAAKELGVAIVWGGDWTTFKDGPHFELDRSKYR
With B8, in the assay with P. aeruginosa, the “CAA MIC” value turned out to be 4000 µg/mL; the “CAA/HuS MIC” value stood at 125 µg/mL; the “effect of the structural modification on activity (as assessed by MIC) versus the parent lysin” value was “improves its potency over GN37 both in the absence and presence of human serum”. This molecule also registered an MBEC in assay [3] of 0.5 µg/mL.

B9: GN80: dispersin B-like molecule (SEQ ID NO: 214) (protein, listed as Staphylococcus sciuri)
chain: MENIQKGITVDIARKSYSLETLKTIVKHIHDHNGQYLQLHFSDDENYAIESEYFDRKSFSNPYYLTKTEVKSLIEYSNDLNVMVIPDMDFPSHSKAFLSLIKQNDKSLYQEIISDYSDNTLDFFSNRKAVDVTNRQIDEITELFKQPQFAEQQRIVLGGDEVAGGGAHQNSFIEYMNQIGDYAFQQGYEPQMWNDMVTHEGVKSLNNHYSILYWKQNEDNKSNLTVEDFDKYYFDVYNYNYYSLYFLPSKQFSQDDINEQAEYIGWAYAYNKFYYNKNPYSEVNSQNVKGSALSFWGEHATDMTQEELINQEVPLIKVYFNLKK
For the molecule B9, in assay [2], the “HEPES (Log10 CFU/mL), 1 hr” value is recorded as 7.7 Log10 CFU/mL; the “HEPES (Log10 CFU/mL), 3 hr” value was 6.7 Log10 CFU/mL; the “CAA/HuS (Log10 CFU/mL), 1 hr” value came to 6.7 Log10 CFU/mL; the “CAA/HuS (Log10 CFU/mL), 3 hr” value is 7.0 Log10 CFU/mL. In assay [3], this molecule registered an MBEC of 0.125 µg/mL.
